Laboratory results reported in US20060199250A1, “Method for generating a mutant protein which efficiently binds a target molecule” (priority 2005, published 2006).

What was measured:
[1] = Yeast two-hybrid ligand dose response assay (growth, OD600) of hERα LBD constructs toward DHB; assay type: cell-based; settings: in yeast; DHB vs E2
Protocol: Phenotypic screening of library variants was carried out based on a yeast two-hybrid system employing two constructs, the hERα LBD construct fused to the DNA binding domain of the yeast Gal4 transactivator, and the common mammalian transcriptional coactivator steroid receptor coactivator-1 (SRC-1) fused to the yeast Gal4 transcriptional activation domain. The hERα-SRC-1 interaction, which is elemental in the role of hERα as a transcriptional activator, is strengthened by the binding of agonist ligands to hERα. This system couples the strength of ligand-receptor interaction within host yeast cells to their growth on media lacking histidine and can be applied in either a selection or screening mode (Chen, et al. (2004) supra).
The plasmids from promising mutants based on this ligand response assay were isolated and re-transformed into fresh yeast cells, and the ligand response assay was carried out again to eliminate possible false-positives.
Plasmids, Strains, Reagents and Growth Media. […]
Ligand Dose Response Assay. […] These microtiter plates were incubated at 30° C. for 24 hours, after which cultures were mixed by pipetting, and OD600 readings were taken using a SPECTRAMAX® 340PC plate reader (Molecular Devices, Sunnyvale, Calif.).

[2] = Mammalian cell transactivation (luciferase) of full-length hERα constructs in HEC-1 cells toward DHB; assay type: cell-based, human
Protocol: Mammalian cell transactivation profiles for the wild-type hERα and the two best mutants, 4-S and 5-E, were carried out in estrogen receptor-negative human endometrial cancer (HEC-1) cells after cloning the hERα LBD from the chimeric yeast two-hybrid construct into the full-length estrogen receptor construct.
Mammalian Transfection and Luciferase Assay. Methods used for cell culture, transfection, and performance of luciferase assay are known in the art (Muthyala, et al. (2003) J. Med. Chem. 46:1589-1602).

B1: mutant 5-E: hERα mutant: Ala350Met, Leu346Ile, Met388Gln, Gly521Ser, Tyr526Asp, Phe461Leu, Val560Met (protein, UniProt P03372 1-595, looked up, variant A350M L346I M388Q G521S Y526D F461L V560M)
Estrogen receptor: MTMTLHTKASGMALLHQIQGNELEPLNRPQLKIPLERPLGEVYLDSSKPAVYNYPEGAAYEFNAAAAANAQVYGQTGLPYGPGSEAAAFGSNGLGGFPPLNSVSPSPLMLLHPPPQLSPFLQPHGQQVPYYLENEPSGYTVREAGPPAFYRPNSDNRRQGGRERLASTNDKGSMAMESAKETRYCAVCNDYASGYHYGVWSCEGCKAFFKRSIQGHNDYMCPATNQCTIDKNRRKSCQACRLRKCYEVGMMKGGIRKDRRGGRMLKHKRQRDDGEGRGEVGSAGDMRAANLWPSPLMIKRSKKNSLALSLTADQMVSALLDAEPPILYSEYDPTRPFSEASMMGLITNLMDRELVHMINWAKRVPGFVDLTLHDQVHLLECAWLEILQIGLVWRSMEHPGKLLFAPNLLLDRNQGKCVEGMVEIFDMLLATSSRFRMMNLQGEEFVCLKSIILLNSGVYTLLSSTLKSLEEKDHIHRVLDKITDTLIHLMAKAGLTLQQQHQRLAQLLLILSHIRHMSNKSMEHLDSMKCKNVVPLYDLLLEMLDAHRLHAPTSRGGASMEETDQSHLATAGSTSSHSLQKYYITGEAEGFPATV
selectivity enhancement relative to the fourth round mutant (4-S) [1]: no selectivity enhancement
Selectivity ([2]; HEC-1 cells, EC50 of E2 divided by EC50 of DHB): ≧2.6 × 10^4
Fold Improvement ([2]; HEC-1 cells, selectivity DHB vs E2 relative to wild-type hERα): ≧1.4 × 10^8
selectivity enhancement relative to the fourth round mutant (4-S) ([2]; in mammalian cells, DHB vs E2): no selectivity enhancement
